The text below walks through data of the Human Domainome abundance scans (Beltran et al. 2025).

B1: Transcription elongation factor A N-terminal and central domain-containing protein, residues 30 to 77; numbered along this chain, Q8N8B7 (parent)
chain: LTELETIYVTKEHLQETDVVRAVYRVLKNCPSVALKKKAKCLLSKWKA

± gives the uncertainty stated by the source.

This data set covers variants of B1. As to the kind of experiment: abundance fitness (aPCA) (normalised: wild type 0, dead -1); higher = more abundant; growth selection in yeast, the domain comes from the species named. The note with it: Homo sapiens.
In the case of LTELENIYVTKEHLQETDVVRAVYRVLKNCPSVALKKKAKCLLSKWKA [T6N], the abundance fitness is -0.514 ± 0.21.
In the case of LTELEQIYVTKEHLQETDVVRAVYRVLKNCPSVALKKKAKCLLSKWKA [T6Q] it was 0.08 ± 0.13; in that of LTELEKIYVTKEHLQETDVVRAVYRVLKNCPSVALKKKAKCLLSKWKA [T6K], -0.059 ± 0.096; in that of LTELELIYVTKEHLQETDVVRAVYRVLKNCPSVALKKKAKCLLSKWKA [T6L], -0.616 ± 0.091.
Next, LTELEEIYVTKEHLQETDVVRAVYRVLKNCPSVALKKKAKCLLSKWKA [T6E]: 0.126 ± 0.1; LTELEFIYVTKEHLQETDVVRAVYRVLKNCPSVALKKKAKCLLSKWKA [T6F]: -0.23 ± 0.12; LTELEHIYVTKEHLQETDVVRAVYRVLKNCPSVALKKKAKCLLSKWKA [T6H]: -0.147 ± 0.15.
Turning to LTELETAYVTKEHLQETDVVRAVYRVLKNCPSVALKKKAKCLLSKWKA [I7A], the abundance fitness came out at 0.131 ± 0.076.
For the variant LTELETDYVTKEHLQETDVVRAVYRVLKNCPSVALKKKAKCLLSKWKA [I7D], the abundance fitness was determined as 0.203 ± 0.087.
With LTELETTYVTKEHLQETDVVRAVYRVLKNCPSVALKKKAKCLLSKWKA [I7T], the abundance fitness was found to be 0.192 ± 0.11.
In the case of LTELETEYVTKEHLQETDVVRAVYRVLKNCPSVALKKKAKCLLSKWKA [I7E] it was 0.3 ± 0.085; in that of LTELETYYVTKEHLQETDVVRAVYRVLKNCPSVALKKKAKCLLSKWKA [I7Y], -0.422 ± 0.21.
As for LTELETFYVTKEHLQETDVVRAVYRVLKNCPSVALKKKAKCLLSKWKA [I7F], the abundance fitness is -0.323 ± 0.17.
Next, LTELETVYVTKEHLQETDVVRAVYRVLKNCPSVALKKKAKCLLSKWKA [I7V]: 0.006 ± 0.072; LTELETWYVTKEHLQETDVVRAVYRVLKNCPSVALKKKAKCLLSKWKA [I7W]: -0.631 ± 0.12.
Turning to LTELETHYVTKEHLQETDVVRAVYRVLKNCPSVALKKKAKCLLSKWKA [I7H], the abundance fitness was -0.212 ± 0.36.
In the case of LTELETLYVTKEHLQETDVVRAVYRVLKNCPSVALKKKAKCLLSKWKA [I7L], the abundance fitness is -0.07 ± 0.079.
For the variant LTELETSYVTKEHLQETDVVRAVYRVLKNCPSVALKKKAKCLLSKWKA [I7S], the abundance fitness was found to be 0.147 ± 0.087.
Next, LTELETMYVTKEHLQETDVVRAVYRVLKNCPSVALKKKAKCLLSKWKA [I7M]: 0.244 ± 0.11.
Next, LTELETQYVTKEHLQETDVVRAVYRVLKNCPSVALKKKAKCLLSKWKA [I7Q]: 0.015 ± 0.11.
On to LTELETCYVTKEHLQETDVVRAVYRVLKNCPSVALKKKAKCLLSKWKA [I7C], for which the abundance fitness was -0.541 ± 0.13.
As to LTELETRYVTKEHLQETDVVRAVYRVLKNCPSVALKKKAKCLLSKWKA [I7R], the abundance fitness amounted to 0.008 ± 0.069.
Turning to LTELETNYVTKEHLQETDVVRAVYRVLKNCPSVALKKKAKCLLSKWKA [I7N], the abundance fitness worked out at 0.081 ± 0.16.
Next, LTELETGYVTKEHLQETDVVRAVYRVLKNCPSVALKKKAKCLLSKWKA [I7G]: 0.224 ± 0.065.
Consider LTELETPYVTKEHLQETDVVRAVYRVLKNCPSVALKKKAKCLLSKWKA [I7P], for which the abundance fitness came to 0.091 ± 0.13.
In the case of LTELETIYQTKEHLQETDVVRAVYRVLKNCPSVALKKKAKCLLSKWKA [V9Q], the abundance fitness is 0.265 ± 0.096.
Consider LTELETIYCTKEHLQETDVVRAVYRVLKNCPSVALKKKAKCLLSKWKA [V9C], for which the abundance fitness is -0.172 ± 0.1.
On to LTELETIYRTKEHLQETDVVRAVYRVLKNCPSVALKKKAKCLLSKWKA [V9R], for which the abundance fitness worked out at 0.155 ± 0.068.
For LTELETIYPTKEHLQETDVVRAVYRVLKNCPSVALKKKAKCLLSKWKA [V9P], the abundance fitness is -0.027 ± 0.13.
Take LTELETIYKTKEHLQETDVVRAVYRVLKNCPSVALKKKAKCLLSKWKA [V9K]: the abundance fitness was found to be 0.251 ± 0.12.
Consider LTELETIYSTKEHLQETDVVRAVYRVLKNCPSVALKKKAKCLLSKWKA [V9S], for which the abundance fitness came to 0.085 ± 0.085.
Next, LTELETIYGTKEHLQETDVVRAVYRVLKNCPSVALKKKAKCLLSKWKA [V9G]: 0.061 ± 0.072.
Regarding LTELETIYWTKEHLQETDVVRAVYRVLKNCPSVALKKKAKCLLSKWKA [V9W], the abundance fitness is -0.277 ± 0.09.
As to LTELETIYYTKEHLQETDVVRAVYRVLKNCPSVALKKKAKCLLSKWKA [V9Y], the abundance fitness was -0.147 ± 0.12.
As for LTELETIYNTKEHLQETDVVRAVYRVLKNCPSVALKKKAKCLLSKWKA [V9N], the abundance fitness is 0.232 ± 0.12.
In the case of LTELETIYTTKEHLQETDVVRAVYRVLKNCPSVALKKKAKCLLSKWKA [V9T], the abundance fitness was 0.087 ± 0.12.
Next, LTELETIYLTKEHLQETDVVRAVYRVLKNCPSVALKKKAKCLLSKWKA [V9L]: -0.229 ± 0.082.
Next, LTELETIYHTKEHLQETDVVRAVYRVLKNCPSVALKKKAKCLLSKWKA [V9H]: 0.107 ± 0.2; LTELETIYMTKEHLQETDVVRAVYRVLKNCPSVALKKKAKCLLSKWKA [V9M]: -0.098 ± 0.12; LTELETIYDTKEHLQETDVVRAVYRVLKNCPSVALKKKAKCLLSKWKA [V9D]: 0.276 ± 0.11.
Next, LTELETIYITKEHLQETDVVRAVYRVLKNCPSVALKKKAKCLLSKWKA [V9I]: -0.163 ± 0.086; LTELETIYFTKEHLQETDVVRAVYRVLKNCPSVALKKKAKCLLSKWKA [V9F]: 0.045 ± 0.16; LTELETIYETKEHLQETDVVRAVYRVLKNCPSVALKKKAKCLLSKWKA [V9E]: 0.318 ± 0.087.
As to LTELETIYVTGEHLQETDVVRAVYRVLKNCPSVALKKKAKCLLSKWKA [K11G], the abundance fitness is -0.022 ± 0.066.
For LTELETIYVTDEHLQETDVVRAVYRVLKNCPSVALKKKAKCLLSKWKA [K11D], the abundance fitness is -0.021 ± 0.12.
Next, LTELETIYVTFEHLQETDVVRAVYRVLKNCPSVALKKKAKCLLSKWKA [K11F]: -0.747 ± 0.22; LTELETIYVTCEHLQETDVVRAVYRVLKNCPSVALKKKAKCLLSKWKA [K11C]: -0.337 ± 0.11; LTELETIYVTAEHLQETDVVRAVYRVLKNCPSVALKKKAKCLLSKWKA [K11A]: 0.095 ± 0.1.
As to LTELETIYVTEEHLQETDVVRAVYRVLKNCPSVALKKKAKCLLSKWKA [K11E], the abundance fitness is 0.145 ± 0.089.
In the case of LTELETIYVTIEHLQETDVVRAVYRVLKNCPSVALKKKAKCLLSKWKA [K11I] it was -0.08 ± 0.12.
Next, LTESETIYVTKEHLQETDVVRAVYRVLKNCPSVALKKKAKCLLSKWKA [L4S]: 0.216 ± 0.071; LTEYETIYVTKEHLQETDVVRAVYRVLKNCPSVALKKKAKCLLSKWKA [L4Y]: -0.325 ± 0.12.
Regarding LTEVETIYVTKEHLQETDVVRAVYRVLKNCPSVALKKKAKCLLSKWKA [L4V], the abundance fitness is -0.23 ± 0.072.
For LTETETIYVTKEHLQETDVVRAVYRVLKNCPSVALKKKAKCLLSKWKA [L4T], the abundance fitness is 0.269 ± 0.1.
